Source: the supplement of paper PMC7125110
± gives the standard error. Variants at the floor of the assay were thinned out.

B1: glmS ribozyme (parent)
chain: AUAAAAGCGCCAGAACUACAGAAAUGUAGUUGACGAGGAGGAGGUUUAUCGAAUUUUCGGCGGAUGCCUCCAAA

Variants of: B1
Experiment: self-cleavage kobs at 2500 uM GlcN6P; higher = faster cleavage; RNA array
Conditions: with glucosamine-6-phosphate
Outline: (§1)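 E. coli RNA polymerase transcribed barcoded ribozyme variants in situ on sequenced MiSeq chips, which were tracked via a hybridised Cy3 probe at 37 °C. Tiles were imaged over ~14 h after glucosamine-6-phosphate (40 μM to 10 mM) in HEPES/KCl/Mg(OAc)2 buffer was flowed in. Normalised per-tile medians were fit to one- or two-exponential decays for kobs, and kcat and KM came from weighted Michaelis–Menten fits.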

Compared with C11A A12U G40U, G7A C10A A48G is lower in “self-cleavage kobs at 2500 uM GlcN6P” value: 4.18e-05 ± 2.1e-05 s⁻¹ for the first, under 1e-05 s⁻¹ for the second.

A39C G59A G63U and G32A G35A C61A G63A C70U cannot be ordered by “self-cleavage kobs at 2500 uM GlcN6P” value: under 1e-05 s⁻¹ for the first, under 1e-05 s⁻¹ for the second.

Compared with U30G G40C U46G, G29U U31C U54C is 3.7-fold higher in “self-cleavage kobs at 2500 uM GlcN6P” value: 4.32e-05 ± 1.4e-05 s⁻¹ for the first, 0.000161 ± 3.5e-05 s⁻¹ for the second.

C11A C34G U49A and A12G G59U G60U U65G cannot be ordered by “self-cleavage kobs at 2500 uM GlcN6P” value: under 1e-05 s⁻¹ for the first, under 1e-05 s⁻¹ for the second.

G40U U49A A64U C70U and G7A U49A A52C cannot be ordered by “self-cleavage kobs at 2500 uM GlcN6P” value: under 1e-05 s⁻¹ for the first, under 1e-05 s⁻¹ for the second.

G9A A33G G43C and G43A A53U U56G G62U cannot be ordered by “self-cleavage kobs at 2500 uM GlcN6P” value: under 1e-05 s⁻¹ for the first, under 1e-05 s⁻¹ for the second.

Going from U55A C61A C68A to G13A A52C G60A, the “self-cleavage kobs at 2500 uM GlcN6P” value falls from 0.00152 ± 0.00071 s⁻¹ to under 1e-05 s⁻¹.

A12G C34U C68A and G9C A15U U47G G51C G63C cannot be ordered by “self-cleavage kobs at 2500 uM GlcN6P” value: under 1e-05 s⁻¹ for the first, under 1e-05 s⁻¹ for the second.

Going from G41C U49A U65A to C16G G29C U31G, the “self-cleavage kobs at 2500 uM GlcN6P” value rises from under 1e-05 s⁻¹ to 0.00447 ± 0.00064 s⁻¹.

A33U C34U A39C and U31G C34G A64G C67G cannot be ordered by “self-cleavage kobs at 2500 uM GlcN6P” value: under 1e-05 s⁻¹ for the first, under 1e-05 s⁻¹ for the second.

Compared with C10U A33C A36U U54A, A14U U47G C68U is higher in “self-cleavage kobs at 2500 uM GlcN6P” value: under 1e-05 s⁻¹ for the first, 0.000197 ± 3.4e-05 s⁻¹ for the second.

Compared with G32C C50G U55A U56G U57C, A6G U55C C71A is lower in “self-cleavage kobs at 2500 uM GlcN6P” value: 0.000162 ± 5.8e-05 s⁻¹ for the first, under 1e-05 s⁻¹ for the second.

First: A14U C16G G38C G41C U47G
Second: C11A A14G G40U
The “self-cleavage kobs at 2500 uM GlcN6P” value of the first is lower: under 1e-05 s⁻¹ for the first, 5.01e-05 ± 1.9e-05 s⁻¹ for the second.

Going from G32U A42G C58G C70U to G41U U47G U49A G66C C71U, the “self-cleavage kobs at 2500 uM GlcN6P” value falls from 0.000198 ± 8.4e-05 s⁻¹ to under 1e-05 s⁻¹.

Compared with C16U U46C U56C, G7A A36G G38A U47G A53G is lower in “self-cleavage kobs at 2500 uM GlcN6P” value: 0.000416 ± 7.9e-05 s⁻¹ for the first, under 1e-05 s⁻¹ for the second.

Compared with C11G C50G C58A, A36G G44U A48G C67U C71A is lower in “self-cleavage kobs at 2500 uM GlcN6P” value: 0.00031 ± 0.00011 s⁻¹ for the first, under 1e-05 s⁻¹ for the second.

Going from C11U U30G U45G to G37U A53U U57A, the “self-cleavage kobs at 2500 uM GlcN6P” value falls from 0.000105 ± 4e-05 s⁻¹ to under 1e-05 s⁻¹.

First: G7A C50G G63C
Second: A12G U46G C71A
The “self-cleavage kobs at 2500 uM GlcN6P” value of the first is 4.8-fold higher: 0.000242 ± 7.3e-05 s⁻¹ for the first, 5e-05 ± 2e-05 s⁻¹ for the second.

Compared with A14C U31C U54C, U31A U49G is 7.7-fold lower in “self-cleavage kobs at 2500 uM GlcN6P” value: 0.0014 ± 0.00039 s⁻¹ for the first, 0.000183 ± 3.1e-05 s⁻¹ for the second.

G29A A36G G38U C50U and C10A G38C C58G cannot be ordered by “self-cleavage kobs at 2500 uM GlcN6P” value: under 1e-05 s⁻¹ for the first, under 1e-05 s⁻¹ for the second.

A12G U31C U54C was tested, and the “self-cleavage kobs at 2500 uM GlcN6P” value was 3.97e-05 ± 1.2e-05 s⁻¹.

Variants of: B1
Experiment: self-cleavage kobs at 10000 uM GlcN6P; higher = faster cleavage; RNA array
Conditions: with glucosamine-6-phosphate
Outline: as §1

Going from C11A A12U G40U to G41C U49A U65A, the “self-cleavage kobs at 10000 uM GlcN6P” value falls from 6.34e-05 ± 1.6e-05 s⁻¹ to under 1e-05 s⁻¹.

U31A U49G was tested, and the “self-cleavage kobs at 10000 uM GlcN6P” value was 0.000277 ± 4.5e-05 s⁻¹.
